Measured values: patent publication US12655398B2, “Multipartite luciferase” (Promega Corporation, priority 2018, dated 2026)

Columns and labels:
p65 = test: Nuclear translocation assay (p65-HiBiT HeLa cells, LgBiT*-nuclear sensor); type: cell-based; details: for Time to reach maximum accumulation of p65 in the nucleus upon stimulation: real time measurement
Source text: A nuclear translocation assay was developed using measuring p65 movement from cytosol to the nucleus under TNFa stimulus. The nuclear translocation assay was set up similar to the membrane translocation assay. […] The assay allows measurement of protein translocation in real time.

SmTrip10 pep86 / pep263 = test: Luminescence of LgBiT and LgTrip 2098 E. coli lysates with complementary peptide; type: biochemical; details: E. coli lysate, 25 nM peptide
Experimental: (275 rpm) in a volume of 50 mL. From these cultures, 100× dilutions were made into the same media and the cultures grown at 37 C (275 rpm) for 3 h and then cooled to 25° C. before adding rhamnose (inducing agent for protein overexpression) to a final concentration of 0.2%. Cultures were then grown (induced) for 22 h at 25° C. (275 rpm) at which time cultures were harvested, and the resulting pellets stored at −20° C. until processing. To lyse cells, pellets were removed from −20° C., resuspended in 50 mL of PBS pH 7.2, and taken through 3 sequential freeze thaw cycles (−70° C. to 22° C.), centrifuged to produce soluble fractions, and then kept cold (on ice) until assaying. Lysates and peptide(s) (25 nm final concentration) were incubated together for 10 minutes at 25° C. prior to the addition of NanoGlo® reagent. After addition of reagent, plates were incubated for another 5 min at 35° C. and read over time to measure luminescence (RLU) using a Tecan Infinite F500 plate reader.

[1] = system: SmTrip10 pep86 and SmTrip9 pep245; test: LgTrip 2098 activation by separate β9 and β10-like peptides; type: biochemical; details: 10× concentrated lysate, peptides at 500 nM
Experimental: The luminescence of LgTrip 2098 (SEQ ID NO: 31) was monitored over time in the presence of separate peptides corresponding to the β10 and β9 portions of the full-length luciferase (SmTrip10 pep86 (SEQ ID NO: 25) and SmTrip9 pep245) (SEQ ID NO: 23) (FIG. 2). Similar experimental protocols were used as in Example 1; however, a 10× concentrated lysate was used, Peptides SmTrip10 pep86 and SmTrip9 pep245 were used at 500 nM, and 0.001% Prionex added to reactions. […] Controls with no peptides added or only one of the peptides added produced near the background of the plate reader.

[2] = Effect of urea on activity; type: physicochemical
Experimental: To test activity in the presence of urea, each enzyme was diluted to 1 uM in TBS+0.01% BSA+0.01% Tergitol and further diluted to 2 nM in TBS+0.01% BSA+0.01% Tergitol. […] A two-fold titration series was prepared for each, starting with 10M urea in 25 mM Tris pH 7.5+0.01% Tergitol. 10 uM furimazine was added to each sample of the titration series, and 5 ul of each enzyme or enzyme+pep263 (SEQ ID NO: 35) were combined with 45 ul of each substrate additive mixture. Plates were incubated for 3 minutes and then read on GMM+.
To test the effect of prolonged exposure to urea, each enzyme was diluted to 1 uM, and a two-fold titration series was prepared starting with 10M urea in 25 mM Tris pH 7.5+0.01% Tergitol. 2 ul of each enzyme was added to 198 ul of the urea titration (10 nM final of each enzyme). The “no” additive control was TBS+0.01% BSA+0.01% Tergitol. Samples were incubated for 26 hours. After incubation, samples were diluted 1:10,000 into TBS+0.01% BSA+0.01% Tergitol (10 ul in 990 ul two times). […] 50 ul of each sample was combined with 50 ul of NanoGlo® buffer+50 uM Furimazine. Plates were incubated for 3 minutes and then read on GMM+.

Effect of pH on activity = type: physicochemical; details: pH titration series of universal buffer
Experimental: A universal buffer was prepared containing 25 mM of each: NaCitrate, MES, PIPES, HEPES, TAPS, and Thiourea in 0.5% Tergitol. The buffer was divided into 8 aliquots of 20 ml, and NaOH or HCl was added to create a pH titration series.
To test effect of pH on activity, each enzyme was diluted to 1 uM and then diluted to 0.4 nM in 3 ml of TBS+0.01% BSA+0.01% Tergitol. […] Assay reagent for each pH buffer tested (Table 5) (20 ul of furimazine in 980 of buffer). 10 ul of each enzyme/peptide dilution was combined with 50 ul of assay reagent. Plates were incubated for 3 minutes and read on GMM+.
To test the effect of prolonged exposure varying pH, each enzyme was diluted to 1 uM in TBS+0.01% BSA+0.01% Tergitol, which was then diluted to 20 nM in each buffer. T=0 samples were mixed and then diluted 1:10 into 200 mM HEPES pH 7.5+0.01% BSA+0.01% Tergitol and stored at 4° C. T=8 samples were mixed and then diluted 1:10 into 200 mM HEPES pH 7.5+0.01% BSA+0.01% Tergitol store at 4° C. T=24 samples were mixed and then diluted 1:10 into 200 mM HEPES pH 7.5+0.01% BSA+0.01% Tergitol store at 4° C. […] 40 ul of each sample was diluted with 40 ul of NanoGlo® buffer+40 uM furimazine, incubated for 3 minutes, and then read on GMM+.

## TNFα
p65; p65-HiBiT cell line transfected with LgBiT*-nuclear sensor
  EC50, titration of TNFα: 0.7 ng/mL
p65; p65-HiBiT cells, LgBiT*-nuclear sensor
  Fold-response, titration of TNFα: 4 fold
p65
  Time to reach maximum accumulation of p65 in the nucleus upon stimulation: 30 min
p65; listed as TNFa
  Time to reach maximum accumulation of p65 in the nucleus upon stimulation: approximately 30 min

B1: LgTrip 2098: β1-8-like polypeptide, SEQ ID NO: 17; SEQ ID NO: 31 with His tag (protein)
chain: MVFTLEDFVGDWEQTAAYNLDQVLEQGGVSSLLQNLAVSVTPIQRIVRSGENALKIDIHVIIPYEGLSADQMAQIEEVFKVVYPVDDHHFKVILPYGTLVIDGVTPNMLNYFGRPYEGIAVFDGKKITVTGTLWNGNKIIDERLITPD
SmTrip10 pep86 / pep263
  Gain in signal in the presence of complementary peptide: greater
[1]
  Activation by separate β9 and β10 peptides: activated by the addition of SmTrip10 pep86 and SmTrip9 pep245
[2]; 26 hours incubation in urea titration
  Activity after prolonged (26 hour) exposure to urea: regain activity upon prolonged treatment with urea
[2]; urea titration from 10M, with pep263 for LgBiT and LgTrip
  Activity in the presence of urea (susceptibility to inactivation): least effected by urea

B2: LgTrip: β1-8-like polypeptide corresponding to SEQ ID NO: 17; variants LgTrip 2098 and LgTrip 3546 (protein)
chain: MVFTLEDFVGDWEQTAAYNLDQVLEQGGVSSLLQNLAVSVTPIQRIVRSGENALKIDIHVIIPYEGLSADQMAQIEEVFKVVYPVDDHHFKVILPYGTLVIDGVTPNMLNYFGRPYEGIAVFDGKKITVTGTLWNGNKIIDERLITPD
Effect of pH on activity
  Effect of pH on activity: resistant to a wide pH range
